Laboratory results published in US20030065144A1.

Target: UNC-49B GABA receptor subunit (UNC-49B.1 isoform) (C. elegans)
Assay: cell-based or functional assay

| GABA concentration required to produce half-maximal channel activity (EC50), Xenopus oocytes injected with UNC-49B.1 mRNA, two-electrode voltage clamp [µM] | single main conductance state, single channel recordings in HEK-293 cells expressing UNC-49B alone [pS] | EC50 value for GABA, Xenopus oocytes injected with equal amounts of UNC-49B and UNC-49C RNA, two-electrode voltage clamp [µM] | single main conductance state, single channel recordings in HEK-293 cells transfected with UNC-49B and UNC-49C [pS] | Substance |
| --- | --- | --- | --- | --- |
| 43.7 | 37.5 |  |  | UNC-49B GABA receptor subunit (UNC-49B.1 isoform) |
|  |  | 108 | 30.9 | UNC-49C GABA receptor subunit |
